Results reported in PMC7966918 (Cell Research, 2021).

Target: T1, SARS-CoV-2 S protein extracellular domain (S-ECD, 1–1208 aa) (SARS-CoV-2, Wuhan-Hu-1 (GenBank …, UniProt P0DTC2, proline substitution at residue 986 | proline substitution at residue 987 | …))
T1 construct: also called S trimer; trimeric S protein
Assay: cryo-EM structure
Details: both partners purified

| Binder | binding result |
| --- | --- |
| P2B-1A10 (full-length IgG) (antibody, V domains shown) VH: EVQLVESGGGLIQPGGSLRLSCAASGFTVSSNYMSWVRQAPGKGLEWVSVIYSGGSTYYADSVKGRFTISRDNSKNTLYLQMNSLRAEDTAVYYCAREGPKSITGTAFDIWGQGTIVTVSS VL: DIQMTQSPSSLSASVGDRVTITCQASQDISNYFNWYQQKPGKAPKLLIYDASNLETGVPSRFSGSGSGTDFTFTISSLQPEDIATYYCQQYDNLPMYTFGQGTKLEIK | binds |
| P5A-2G9 (full-length IgG) (antibody, V domains shown) VH: QVQLVESGGGVVQPGRSLRLSCAASGFTFSSYGMHWVRQAPGKGLEWVAVIWYDGSNKYYADSVKGRFTISRDNSKNTLYLQMNSLRAEDTAVYYCARWFHTGGYFDYWGQGTLVTVSS VL: QPVLTQPPSSSASPGESARLTCTLPSDINVSSYNIYWYQQKPGSPPRYLLYYYSDSDKGQGSGVPSRFSGSKDASANTGILLISGLQSEDEADYYCMIWPSNALYVFGTGTKVTVL | binds |
